Measured values from patent US20150359847A1, “METHOD AND COMPOSITION FOR CONFERRING NEUROPROTECTION” (BLOOD SYSTEMS RESEARCH INSTITUTE, priority 2014, published 2015).

Tests used:
[1] = test system: p-AKT(Ser473) in primary hippocampal neurons; assay: Akt (Ser473) phosphorylation in primary hippocampal neurons (antibody array, western blot); type: cell-based, mouse; settings: 1 μg/ml TIMP3, 15 mins
Protocol: SH-SY5Y cells were obtained from ATCC (Cat# CRL-2266, Manassas, Va.) and were cultured in DMEM and 10% FBS up to passage 10. For differentiation of SH-SY5Y cells into a neuronal phenotype, cells were first plated in DMEEM+10% FBS for 24 hrs before exchanging media in DMEM+1% FBS 10 μM retinoic acid. Differentiation was performed for 3 days before experimentation. Hippocampal neurons were prepared according to the protocol by Beaudoin et al. (Nature Protocols 2012; 7(9):1741-1754) with minor modifications. In brief, after trypsin digestion of hippocampi isolated from P1 mouse pups single cell suspensions was created by trituration and plated onto Biocoat™ poly-D-lysine coated 12-well plates (Cat#354470, BD Biosciences, San Jose, Calif.). […]
Pathscan Antibody™ array kits were purchased from Cell Signaling Technologies (Danvers, Mass.). PathScan® RTK signaling antibody array kit (Fluorescent Readout, Cat#7949) and PathScan™ Akt signaling antibody array kit (Fluorescent Readout, Cat#9700) were performed as per manufacturer's instructions. Imaging was performed on a LI-COR Odyssey™ infrared scanner and pixel densities measured by in house LI-COR Image™ suite software. […]
Lysates was analyzed in conjuncture with the LI-COR Odyssey™ infra-red imaging system. […] After further wash steps images were obtained using a LI-COR™ Odyssey scanner and quantified using LI-COR™ Image Studio software. […]

SH-SY5Y cells = assay: Hypoxia and MTT assay; type: cell-based, human; settings: 5 hrs hypoxia + 18 hrs recovery; 1 hr pre-treatment with 1 ng/ml TIMP3
Protocol: MTT Cell Viability & Proliferation Assay™ was purchased from ScienCell, (Cat#8028. Carlsbad, Calif.) and performed with modifications. In brief, 2×10^5 SH-SY5Y cells were plated per well of a 12 well plate and differentiated for 2 days. Pre-treatments were conducted 1 hr prior to initiation of hypoxia. Control cells underwent media exchange. For hypoxia, cultures were placed in a hypoxia incubator chamber (Cat#27310. StemCell technologies, Vancouver, BC) and purged of regular air using nitrogen gas for 5 mins at a flow rate of 20 L/min, after which both inlet and outlet values were closed and the chamber was placed inside a regular tissue culture incubator. The chamber was re-gassed after one hour again for 5 mins at a flow rate of 20 L/min. After the hypoxia period, tissue culture plates were removed from the chamber and placed back into a regular tissue culture incubator for 18 hrs. At the time of assay 50 μl of MTT Solution was added to each well and incubated for 1 hr at 37° C. After incubation, add 250 μl of MTT solubilization buffer was added and […] of each test sample was transferred to a well of a 96 well plate. The absorbance was then read using a Polarstar plate reader (BMG Labtech, Cary, N.C.) at a wavelength at 570 nm. Background subtraction was carried out with values from an average of 4 wells of solubilization buffer alone.

B1: TIMP3: Recombinant tissue inhibitor of matrix metalloproteinase-3, a soluble protein released by MSCs, obtained from Amgen Inc. (protein)
chain: CTCSPSHPQDAFCNSDIVIRAKVVGKKLVKEGPFGTLVYTIKQMKMYRGFTKMPHVQYIHTEASESLCGLKLEVNKYQYLLTGRVYDGKMYTGLCNFVERWDQLTLSQRKGLNYRYHLGCNCKIKSCYYLPCFVTSKNECLWTDMLSNFGYPGYQSKHYACIRQKGGYCSWYRGWAPPDKSIINATDP
p-AKT(Ser473), fluorescent antibody signaling array [1]: activates p-AKT(Ser^473)
p-AKT(Ser473), western blot [1]: activates p-AKT(Ser^473)
SH-SY5Y cell viability by MTT after hypoxia (SH-SY5Y cells): prevents loss of cell viability
